Test results: article PMC4834876 (Journal of molecular biology, 2016)

Molecular target: F-actin (filamentous actin) from rabbit muscle (rabbit, UniProt P68135 1-377)
Assay: co-sedimentation

Kd: ~7 µM
B1: EB1_(248), activated fragment of EB1 lacking the auto-inhibitory acidic tail (domain or fragment)
chain: MAVNVYSTSVTSDNLSRHDMLAWINESLQLNLTKIEQLCSGAAYCQFMDMLFPGSIALKKVKFQAKLEHEYIQNFKILQAGFKRMGVDKIIPVDKLVKGKFQDNFEFVQWFKKFFDANYDGKDYDPVAARQGQETAVAPSLVAPALNKPKKPLTSSSAAPQRPISTQRTAAAPKAGPGVVRKNPGVGNGDDEAAELMQQVNVLKLTVEDLEKERDFYFGKLRNIELICQENEGENDPVLQRIVDILYA
